Data: patent US20250144202A1 (KAIMI BIOMEDICINE CHENGDU, published 2025)
Numbering of substitutions follows the chain as printed.

T1: FcγRIIA protein (UniProt P12318 36-218)
T1 construct: also called CD32a
T1 sequence: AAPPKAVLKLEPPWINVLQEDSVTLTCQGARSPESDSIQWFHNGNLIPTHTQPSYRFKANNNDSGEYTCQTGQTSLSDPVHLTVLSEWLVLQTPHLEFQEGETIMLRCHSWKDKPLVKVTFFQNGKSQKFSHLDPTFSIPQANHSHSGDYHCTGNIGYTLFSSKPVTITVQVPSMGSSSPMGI

B1: Seq2-Sf9 (murine IgG1 Fc variant with three mutations, alanine at positions 223, 228 and 230, expressed in Sf9 insect cells) (other)
chain: VDKKIVPADCGCAPCICAVPEVSSVFIFPPKPKDVLTITLTPKVTCVVVDISKDDPEVQFSWFVDDVEVHTAQTQPREEQFNSTFRSVSELPIMHQDWLNGKEFKCRVNSAAFPAPIEKTISKTKGRPKAPQVYTIPPPKEQMAKDKVSLTCMITDFFPEDITVEWQWNGQPAENYKNTQPIMDTDGSYFVYSKLNVQKSNWEAGNTFTCSVLHEGLHNHHTEKSLSHSPGL
notes: Fc fragment alone, expressed from the pFastBacHTa-gp64 vector in Sf9 cells and purified by Protein A; about 26 kDa on SDS-PAGE; also called mouse Fc with three mutations
B2: Seq3-Sf9 (murine IgG1 Fc variant with five mutations, alanine at 223, 228 and 230, leucine at 330, glutamic acid at 332, expressed in Sf9 insect cells) (other)
chain: B1 chain with A115L, I117E
notes: Fc fragment alone, expressed from the pFastBacHTa-gp64 vector in Sf9 cells and purified by Protein A; about 26 kDa on SDS-PAGE; also called mouse Fc with five mutations

Target: T1, FcγRIIA protein
Experiment: BLI, multi-concentration (5000 to 312.5 nM of the Fc variant)

Binder	Kd [nM]
B1	789
B2	450
